B1: recombinant human CXCL9 (ligand)
chain: TPVVRKGRCSCISTNQGTIHLQSLKDLKQFAPSPSCEKIEIIATLKNGVQTCLNPDSADVKELIKKWEKQVSQKKKQKNGKKHQKKKVLKVRKSQRSRQKKTT
B2: recombinant human CCL21 (ligand)
chain: SDGGAQDCCLKYSQRKIPAKVVRSYRKQEPSLGCSIPAILFLPRKRSQAELCADPKELWVQQLMQHLDKTPSPQKPAQGCRKDRGASKTGKKGKGSKGCKRTERSQTPKGP
B3: recombinant human CXCL4 (ligand)
chain: EAEEDGDLQCLCVKTTSQVRPRHITSLEVIKAGPHCPTAQLIATLKNGRKICLDLQAPLYKKIIKKLLES
B4: recombinant human CCL28 (ligand)
chain: SEAILPIASSCCTEVSHHISRRLLERVNMCRIQRADGDCDLAAVILHVKRRRICVSPHNHTVKQWMKVQAAKKNGKGNVCHRKKHHGKRNSNRAHQGKHETYGHKTPY
B5: recombinant human CXCL11 (ligand)
chain: FPMFKRGRCLCIGPGVKAVKVADIEKASIMYPSNNCDKIEVIITLKENKGQRCLNPKSKQARLIIKKVERKNF
B6: recombinant human CCL26 (ligand)
chain: TRGSDISKTCCFQYSHKPLPWTWVRSYEFTSNSCSQRAVIFTTKRGKKVCTHPRKKWVQKYISLLKTPKQL
B7: recombinant human CCL5 (ligand)
chain: SPYSSDTTPCCFAYIARPLPRAHIKEYFYTSGKCSNPAVVFVTRKNRQVCANPEKKWVREYINSLEMS
B8: recombinant human CCL11 (ligand)
chain: not shown
B9: recombinant human CXCL14 (ligand)
chain: SKCKCSRKGPKIRYSDVKKLEMKPKYPHCEEKMVIITTKSVSRYRGQEHCLHPKLQSTKRFIKWYNAWNEKRRVYEE

Columns and labels:
[1] = target: T1, SARS-CoV-2 nucleocapsid protein (N), 2X-StrepTag tagged (SARS-CoV-2, UniProt P0DTC9 1-419); assay: BLI
[2] = target: T1, SARS-CoV-2 nucleocapsid protein (N), …; assay: BLI; remark: listed apart in the source

Row | Binder | Kd [1] | koff [2]
1 | B1 | 12 nM | 0.00085 s⁻¹
2 | B2 | 14 nM | 0.0014 s⁻¹
3 | B3 | 170 nM | 0.00053 s⁻¹
4 | B4 | 22 nM | 0.00087 s⁻¹
5 | B5 | 130 nM | 0.0033 s⁻¹
6 | B6 | 26 nM | 0.00093 s⁻¹
7 | B7 | – | 0.00019 s⁻¹
8 | B8 | 72 nM | 0.0045 s⁻¹
9 | B9 | 45 nM | 0.0019 s⁻¹

Reference: article PMC8687477 (2021)
